Measurements taken from patent publication US20120165503A1 (Merck Sharp & Dohme, published 2012).
Positions count from the first letter of the chain named. Values joined by “and” are separate entries in the source; they are usually repeats but may differ in a detail not shown here. Equal entries are not always repeated. Where two headings read alike, the source gives them in different places. *1 amine or outer side, *2 acyl side, *3 side chain or, on linkers, in order; H or OH if unused. Bridges are numbered along the chain shown (N, C = ends). Where no end group is shown, it is not given here. Side-chain parts run from the residue outwards. [ ]: non-standard residue; d: D form. The star is where a group is joined. (mPEG)2 40 kDa = C3 = Cys(mPEG)240kDa, branched (mPEG)2, 40 kDa; Oxa12‑cholesterol = C10 = Cys(oxa12-cholesterol); γGlu = O=C(O)[C@H](CCC(=O)[*:2])N[*:1]; oxa12‑cholesterol = not defined here; Palmitoyl = CCCCCCCCCCCCCCCC(=O)*; Met(O) = CS(=O)CC[C@H](N)C(=O)O; Ac4c = NC1(C(=O)O)CCC1; Aib = CC(C)(N)C(=O)O

B1: OXM345 (peptide)
peptide: HSQGTFTSDYSKYLDSRRAQDFVQWLMNTKEEC
modifications: D-Ser at position 2; gamma-glutamic acid at positions 31 and 32; C4 = Cys(cholesterol) at position 33; C-terminal COOH
B2: OXM399 (peptide)
peptide: B1 peptide
modifications: D-Ser at position 2; gamma-glutamic acid at positions 31 and 32; C10 = Cys(oxa12-cholesterol) at position 33; C-terminal COOH
B3: OXM401 (peptide)
peptide: B1 peptide with S2X
modifications: Acb (1-amino-1-cyclobutane carboxylic acid) at position 2; gamma-glutamic acid at positions 31 and 32; C10 = Cys(oxa12-cholesterol) at position 33; C-terminal COOH
B4: OXM400 (peptide)
peptide: B1 peptide with S2X
modifications: Aib at position 2; gamma-glutamic acid at positions 31 and 32; C10 = Cys(oxa12-cholesterol) at position 33; C-terminal COOH
B5: OXM380 (peptide)
peptide: B1 peptide
modifications: D-Ser at position 2; gamma-glutamic acid at positions 31 and 32; C7 = Cys(Oxa4-cholesterol) at position 33; C-terminal COOH
B6: OXM381 (peptide)
peptide: B1 peptide
modifications: D-Ser at position 2; gamma-glutamic acid at positions 31 and 32; C9 = Cys(mal-oxa12-cholesterol) at position 33; C-terminal COOH
B7: OXM417 (peptide)
peptide: H[Ac4c]QGTFTSDK([γGlu-γGlu-Palmitoyl])SKYLDERRAQDFVQWLMNTK-NH2
modifications: N-terminus assumed
SMILES: CCCCCCCCCCCCCCCC(=O)N[C@@H](CCC(=O)N[C@@H](CCC(=O)NCCCC[C@H](NC(=O)[C@H](CC(=O)O)NC(=O)[C@H](CO)NC(=O)[C@@H](NC(=O)[C@H](Cc1ccccc1)NC(=O)[C@@H](NC(=O)CNC(=O)[C@H](CCC(N)=O)NC(=O)C1(NC(=O)[C@@H](N)Cc2c[nH]cn2)CCC1)[C@@H](C)O)[C@@H](C)O)C(=O)N[C@@H](CO)C(=O)N[C@@H](CCCCN)C(=O)N[C@@H](Cc1ccc(O)cc1)C(=O)N[C@@H](CC(C)C)C(=O)N[C@@H](CC(=O)O)C(=O)N[C@@H](CCC(=O)O)C(=O)N[C@@H](CCCNC(=N)N)C(=O)N[C@@H](CCCNC(=N)N)C(=O)N[C@@H](C)C(=O)N[C@@H](CCC(N)=O)C(=O)N[C@@H](CC(=O)O)C(=O)N[C@@H](Cc1ccccc1)C(=O)N[C@H](C(=O)N[C@@H](CCC(N)=O)C(=O)N[C@@H](Cc1c[nH]c2ccccc12)C(=O)N[C@@H](CC(C)C)C(=O)N[C@@H](CCSC)C(=O)N[C@@H](CC(N)=O)C(=O)N[C@H](C(=O)N[C@@H](CCCCN)C(N)=O)[C@@H](C)O)C(C)C)C(=O)O)C(=O)O
B8: OXM411 (peptide)
peptide: H[dS]QGTFTSDK([γGlu-γGlu-Palmitoyl])SKYLDERRAQDFVQWLMNTK-NH2
modifications: N-terminus assumed
SMILES: CCCCCCCCCCCCCCCC(=O)N[C@@H](CCC(=O)N[C@@H](CCC(=O)NCCCC[C@H](NC(=O)[C@H](CC(=O)O)NC(=O)[C@H](CO)NC(=O)[C@@H](NC(=O)[C@H](Cc1ccccc1)NC(=O)[C@@H](NC(=O)CNC(=O)[C@H](CCC(N)=O)NC(=O)[C@@H](CO)NC(=O)[C@@H](N)Cc1c[nH]cn1)[C@@H](C)O)[C@@H](C)O)C(=O)N[C@@H](CO)C(=O)N[C@@H](CCCCN)C(=O)N[C@@H](Cc1ccc(O)cc1)C(=O)N[C@@H](CC(C)C)C(=O)N[C@@H](CC(=O)O)C(=O)N[C@@H](CCC(=O)O)C(=O)N[C@@H](CCCNC(=N)N)C(=O)N[C@@H](CCCNC(=N)N)C(=O)N[C@@H](C)C(=O)N[C@@H](CCC(N)=O)C(=O)N[C@@H](CC(=O)O)C(=O)N[C@@H](Cc1ccccc1)C(=O)N[C@H](C(=O)N[C@@H](CCC(N)=O)C(=O)N[C@@H](Cc1c[nH]c2ccccc12)C(=O)N[C@@H](CC(C)C)C(=O)N[C@@H](CCSC)C(=O)N[C@@H](CC(N)=O)C(=O)N[C@H](C(=O)N[C@@H](CCCCN)C(N)=O)[C@@H](C)O)C(C)C)C(=O)O)C(=O)O
B9: OXM99 (peptide)
peptide: HXQGTFTSDYSKYLDSRRAQDFVQWLMNTKRNRNNIAC
modifications: not fully specified; Aib at position 2; methionine sulfoxide at position 27; C3 = Cys(mPEG)240kDa (40 kDa) at position 38; C-terminal amide
B10: OXM67 (peptide)
peptide: B9 peptide
modifications: α-aminoisobutyric acid (Aib) at position 2; C1 = Cys(mPEG)5kDa at position 38; C-terminal amide
B11: OXM36 (peptide)
peptide: B9 peptide with X2S
modifications: not fully specified; D-Ser at position 2; C4 = Cys(cholest-5-en-3-yl{[(2R)-3-amino-2-(amino)-3-oxopropyl]thio}acetate) at position 38; C-terminal amide
B12: OXM100 (peptide)
peptide: B9 peptide
modifications: Aib at position 2; methionine sulfoxide at position 27; C6 = Cys(mPEG)260kDa (60 kDa) at position 38; C-terminal amide
B13: OXM69 (peptide)
peptide: B9 peptide
modifications: Aib at position 2; C3 = Cys(mPEG)240kDa (branched (mPEG)2, 40 kDa) at position 38; C-terminal amide
B14: OXM35 (peptide)
peptide: B9 peptide with X2S
modifications: D-Ser at position 2; C3 = Cys(mPEG)240kDa (branched (mPEG)2, 40 kDa) at position 38; C-terminal amide
B15: OXM107 (peptide)
peptide: HXQGTFTSDYSKYLDSRRAQDFVCWLMNTKRNRNNIA
modifications: Aib at position 2; C3 = Cys(mPEG)240kDa (40 kDa) at position 24; methionine sulfoxide at position 27; C-terminal amide
B16: OXM416 (peptide)
peptide: H[Aib]QGTFTSDK([γGlu-γGlu-Palmitoyl])SKYLDERRAQDFVQWLMNTK-NH2
modifications: N-terminus assumed
SMILES: CCCCCCCCCCCCCCCC(=O)N[C@@H](CCC(=O)N[C@@H](CCC(=O)NCCCC[C@H](NC(=O)[C@H](CC(=O)O)NC(=O)[C@H](CO)NC(=O)[C@@H](NC(=O)[C@H](Cc1ccccc1)NC(=O)[C@@H](NC(=O)CNC(=O)[C@H](CCC(N)=O)NC(=O)C(C)(C)NC(=O)[C@@H](N)Cc1c[nH]cn1)[C@@H](C)O)[C@@H](C)O)C(=O)N[C@@H](CO)C(=O)N[C@@H](CCCCN)C(=O)N[C@@H](Cc1ccc(O)cc1)C(=O)N[C@@H](CC(C)C)C(=O)N[C@@H](CC(=O)O)C(=O)N[C@@H](CCC(=O)O)C(=O)N[C@@H](CCCNC(=N)N)C(=O)N[C@@H](CCCNC(=N)N)C(=O)N[C@@H](C)C(=O)N[C@@H](CCC(N)=O)C(=O)N[C@@H](CC(=O)O)C(=O)N[C@@H](Cc1ccccc1)C(=O)N[C@H](C(=O)N[C@@H](CCC(N)=O)C(=O)N[C@@H](Cc1c[nH]c2ccccc12)C(=O)N[C@@H](CC(C)C)C(=O)N[C@@H](CCSC)C(=O)N[C@@H](CC(N)=O)C(=O)N[C@H](C(=O)N[C@@H](CCCCN)C(N)=O)[C@@H](C)O)C(C)C)C(=O)O)C(=O)O

Experiments:
Assay in all cases: cell-based or functional assay
human GLP-1 receptor [1] = target: T1, human GLP-1 receptor (human, UniProt P43220 24-463)
human glucagon receptor [2] = target: T2, human glucagon receptor (human, UniProt P47871 26-477)
human GLP-1 receptor [3] = target: T1, human GLP-1 receptor; remark: listed apart in the source
human glucagon receptor [4] = target: T2, human glucagon receptor; remark: listed apart in the source
human glucagon receptor [5] = target: T2, human glucagon receptor; remark: listed apart in the source

T2 sequence (P47871 26-477): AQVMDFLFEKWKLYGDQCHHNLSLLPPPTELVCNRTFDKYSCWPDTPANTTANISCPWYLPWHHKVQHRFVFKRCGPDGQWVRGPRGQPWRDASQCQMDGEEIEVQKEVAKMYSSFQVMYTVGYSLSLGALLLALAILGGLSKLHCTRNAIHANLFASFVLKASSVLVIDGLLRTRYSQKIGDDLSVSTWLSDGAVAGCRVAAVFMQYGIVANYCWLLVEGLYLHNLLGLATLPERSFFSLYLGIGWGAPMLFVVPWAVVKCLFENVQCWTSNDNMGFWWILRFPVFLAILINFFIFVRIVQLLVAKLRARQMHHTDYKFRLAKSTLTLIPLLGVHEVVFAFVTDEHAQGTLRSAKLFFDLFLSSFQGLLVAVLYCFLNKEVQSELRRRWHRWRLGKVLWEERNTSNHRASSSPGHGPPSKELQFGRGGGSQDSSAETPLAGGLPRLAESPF

| Binder | hGLP-1R + 20% Plasma EC50 (human GLP-1 receptor [1]) [nM] | hGCGR + 20% plasma EC50 (human glucagon receptor [2]) | GLP-1R EC50 (human GLP-1 receptor [3]) [nM] | % Activation of GCGR (human glucagon receptor [4]) [%] | GCGR EC50 (human glucagon receptor [4]) [nM] | other results |
| --- | --- | --- | --- | --- | --- | --- |
| H[Aib]QGTFTSDYSKYLDERRAKDFVQWLMNTK[γGlu][γGlu]C(Oxa12‑cholesterol)-OH (lactam 16-20) [OXM395] | 3.3 | 119 nM | – | – | – | hGLP-1R EC50 (human GLP-1 receptor [1]): 0.7 nM; hGCGR EC50 (human glucagon receptor [2]): 10 nM |
| B1 | > 1000 | > 1000 nM | – | – | – | hGLP-1R EC50 (human GLP-1 receptor [1]): 5.1 nM; hGCGR EC50 (human glucagon receptor [2]): 0.1 nM |
| B2 | 5.7 | 0.4 nM | – | – | – | hGLP-1R EC50 (human GLP-1 receptor [1]): 0.05 nM; hGCGR EC50 (human glucagon receptor [2]): 0.01 nM |
| B3 | 2.9 | 0.3 nM | – | – | – | hGLP-1R EC50 (human GLP-1 receptor [1]): 0.23 nM; hGCGR EC50 (human glucagon receptor [2]): 0.09 nM |
| B4 | 1.9 | 0.8 nM | – | – | – | hGLP-1R EC50 (human GLP-1 receptor [1]): 0.07 nM; hGCGR EC50 (human glucagon receptor [2]): 0.01 nM |
| B5 | 30.7 | 3.4 nM | – | – | – | hGLP-1R EC50 (human GLP-1 receptor [1]): 0.3 nM; hGCGR EC50 (human glucagon receptor [2]): 0.1 nM |
| B6 | 1.9 | 0.8 nM and 0.9 nM | – | – | – | – |
| H[Aib]QGTFTSDYC((mPEG)2 40 kDa)KYLDSRRAQDFVQWL[Met(O)]NTKRNRNNIA-NH2 [OXM121] | – | – | > 125 | – | – | – |
| H[Aib]QGTFTSDYSC((mPEG)2 40 kDa)YLDSRRAQDFVQWL[Met(O)]NTKRNRNNIA-NH2 [OXM124] | – | – | > 100 | – | – | – |
| B7 | 0.15 | 0.4 nM | – | – | – | – |
| B8 | 0.1 | 0.2 nM | – | – | – | – |
| HSQGTFTSDYSKYLDSRRAQDFVQWLMNTKRNRNNIAC (D-Ser at position 2; C1 = Cys(mPEG)5kDa at position 38; C-terminal amide) [OXM33] | – | – | 115 | 78 | 75.3 | – |
| HSQGTFTSDYSKYLDSRRAQDFVQWLMNTKRNRNNIAC (D-Ser at position 2; C2 = Cys(mPEG)20kDa at position 38; C-terminal amide) [OXM34] | – | – | 195 | 61 | 616 | – |
| HXQGTFTSDYSKYLDSRRAQDFVQWLMNTKRNRNNIAC (Aib at position 2; C2 = Cys(mPEG)20kDa at position 38; C-terminal amide) [OXM68] | – | – | 8.3 | 58 | 601 | – |
| B9 | – | – | 7.4 | 66 | > 1000 | – |
| HSQGTFTSDYSKYLDSRRAQDFVQWLMNTKRNRNNIAK (D-Ser at position 2; K(palmitoyl) at position 38; C-terminal amide) [OXM110] | – | – | – | – | – | GCGR + 10% plasma (human glucagon receptor [5]): 6.9 nM; GCGR EC50 (human glucagon receptor [5]): 0.31 nM |
| B10 | – | – | 5.8 | 73 | 138 | – |
| B11 | – | – | – | – | – | GCGR EC50 (human glucagon receptor [5]): 12.1 nM |
| B12 | – | – | 22.5 | 22 | > 1000 | – |
| B13 | – | – | 6 | 46 | > 1000 | – |
| B14 | – | – | 716 | 71 | 142 | – |
| HSQGTFTSDKSKYLDSRRAQDFVQWLMNTK (D-Ser at position 2; Lys(γE-γE-palmitoyl) at position 10; C-terminal amide) [OXM409] | 0.7 | 0.1 nM | – | – | – | – |
| B15 | – | – | 29.7 | 30 | > 1000 | – |
| H[dS]QGTFTSDYSKYLDERRAKDFVQWLMNTK[γGlu][γGlu]C(oxa12‑cholesterol)-OH (lactam 16-20; reading uncertain) [OXM392] | 3 | 0.3 nM | – | – | – | hGLP-1R EC50 (human GLP-1 receptor [1]): 0.03 nM; hGCGR EC50 (human glucagon receptor [2]): 0.03 nM |
| B16 | 0.09 | 1.4 nM | – | – | – | – |
| H[Aib]QGTFTSDYSKYLDSRRAC((mPEG)2 40 kDa)DFVQWLMNTKRNRNNIA-NH2 [OXM103] | – | – | 6.2 | 75 | 203 | – |
| H[Aib]QGTFTSDYSKYLDSRRAQC((mPEG)2 40 kDa)FVQWLMNTKRNRNNIA-NH2 [OXM105] | – | – | 28.5 | 21 | 648 | – |
